How the values were obtained:
[1] = biological target: T1, human PD-1 (hFc/his tag) (human, UniProt Q15116 21-167); assay: ELISA on human PD-1
T1 construct: range 21-167; not shown: hFc or his tag

[2] = biological target: T2, human LAG-3-his (human, UniProt P18627 23-422); assay: ELISA on human LAG-3
T2 construct: range 23-422; also called hLAG-3-his; hLAG-3
T2 sequence: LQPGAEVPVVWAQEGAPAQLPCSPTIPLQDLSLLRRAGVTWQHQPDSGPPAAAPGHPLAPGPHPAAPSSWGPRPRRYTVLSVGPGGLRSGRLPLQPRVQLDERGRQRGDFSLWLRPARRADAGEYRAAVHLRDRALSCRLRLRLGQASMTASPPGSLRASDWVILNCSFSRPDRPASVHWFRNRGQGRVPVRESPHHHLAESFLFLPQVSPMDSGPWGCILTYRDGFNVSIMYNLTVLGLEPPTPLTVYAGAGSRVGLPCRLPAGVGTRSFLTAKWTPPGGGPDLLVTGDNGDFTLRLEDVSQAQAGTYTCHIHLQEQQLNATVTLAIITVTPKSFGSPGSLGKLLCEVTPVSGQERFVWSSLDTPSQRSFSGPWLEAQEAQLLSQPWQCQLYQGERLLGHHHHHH

[3] = biological target: T2, human LAG-3-his; assay: ELISA on hLAG-3
Method: After discarding the liquid, a blocking solution of 5% skimmed milk (Bright skimmed milk powder) diluted with PBS was added at 230 μl per well, followed by incubating at 37° C. for 3 hours or 4° C. overnight (16-18 hours) for blocking. Subsequently, the blocking solution was discarded, and the micropiate was washed 5 times with PBST buffer (pH 7.4 PBS containing 0.05% tweeen-20). Then 50 μl/well of the supernatant (containing the antibody to be tested) or a starting concentration of 10 μg/ml of the antibody to be tested, which was diluted 5 times in gradient, was added, followed by incubating the mixture for 1 hour at 37° C. […] After washing the microplate 5 times with PBST, 50 μl/well TIMB chromogenic substrate (KPL, Cat. No.: 52-00-03) was added, and then incubated for […] at room temperature. Finally, 50 μl/well of 1 M H₂SO₄ was added to stop the reaction. The absorbance value at 450 nm was read by […] GO microplate reader (ThermoFisher, Cat. No.: 51119200). The clones with high affinity were selected according to the OD value or the EC₅₀ value was calculated (for antibodies with known concentrations).

[4] = biological target: T3, bio-LAG3-mFc (human, UniProt P18627 23-450, biotin-labelled); assay: blocking ELISA, LAG-3 on Daudi cells
T3 construct: also called hLAG-3
T3 sequence (looked up): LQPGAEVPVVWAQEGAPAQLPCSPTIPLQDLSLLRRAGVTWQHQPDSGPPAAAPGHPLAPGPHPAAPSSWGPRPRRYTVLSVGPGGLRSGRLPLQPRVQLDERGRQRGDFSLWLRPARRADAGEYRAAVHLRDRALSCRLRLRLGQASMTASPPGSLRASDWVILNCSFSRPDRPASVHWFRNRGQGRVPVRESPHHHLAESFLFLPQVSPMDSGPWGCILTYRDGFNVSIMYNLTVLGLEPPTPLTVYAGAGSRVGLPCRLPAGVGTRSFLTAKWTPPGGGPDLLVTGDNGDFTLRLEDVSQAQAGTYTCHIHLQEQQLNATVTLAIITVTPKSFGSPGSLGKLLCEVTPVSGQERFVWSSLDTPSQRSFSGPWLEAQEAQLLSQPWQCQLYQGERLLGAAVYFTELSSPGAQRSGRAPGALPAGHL

T1 sequence (Q15116 21-167, form in doubt): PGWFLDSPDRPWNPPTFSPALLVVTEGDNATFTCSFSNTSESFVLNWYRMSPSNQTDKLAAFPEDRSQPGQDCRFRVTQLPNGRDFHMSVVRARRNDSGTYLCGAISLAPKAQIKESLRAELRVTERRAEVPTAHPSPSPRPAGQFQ

EC50 [1] [nM]	EC50 [2] [nM]	EC50 [3] [nM]	IC50 [4] [nM]	Binder
0.138	0.237			LB2383 (bispecific antibody, human IgG4 S228P, kappa) light: EIVLTQSPATLSLSPGERATLSCRASKGVSTSGYSYLHWYQQKPGQAPRLLIYLASYLESGVPARFSGSGSGTDFTLTISSLEPEDFAVYYCQHSRDLPLTFGGGTKVEIKRTVAAPSVFIFPPSDEQLKSGTASVVCLLNNFYPREAKVQWKVDNALQSGNSQESVTEQDSKDSTYSLSSTLTLSKADYEKHKVYACEVTHQGLSSPVTKSFNRGEC heavy: not shown
		0.181	2.18	Ab2315 (antibody, human IgG4 S228P, kappa, V domains shown, LG2315 / LG2343, human kappa / hIgG4) VH: QVQLVQSGAEVKKPGASVKVSCKASGYTFTDYEMHWVKQAPGQGLEWIGGIDPETEGIAYNQKFRGRATLTADKSTSTAYMELRSLRSDDTAVYYCTNSNYYGGREAWFAYWGQGTLVTVSS VL: DIQMTQSPSSLSASVGDRVTITCRASQDIGSSLNWLQQKPGKAIKRLIYATSSLDSGVPSRFSGSGSGTDYTLTISSLQPEDFATYYCLQYVTSPLTFGGGTKVEIKR
		0.237	1.22	Ab2314 (antibody, human IgG4 S228P, kappa, V domains shown, human kappa / hIgG4) VH: QVQLVQSGAEVKKPGASVKVSCKASGYTFTDYEMHWVKQAPGQGLEWIGGIDPETEGIAYNQKFRGRATLTADKSTSTAYMELRSLRSDDTAVYYCTNSNYYGGREAWFAYWGQGTLVTVSS VL: DIQMTQSPSSLSASVGDRVTITCRASQDIGSSLNWLQQKPGKAIKRLIYATSSLDSGVPSRFSGSRSGSDYTLTISSLQPEDFATYYCLQYVTSPLTFGGGTKVEIKR
		0.131	2.32	Ab2322 (antibody, human IgG4 S228P, kappa, V domains shown, human kappa / hIgG4) VH: QVQLVQSGAEVKKPGASVKVSCKASGYTFTDYEMHWVKQAPGQGLEWIGGIDPETEGIAYNQKFRGRATMTTDTSTSTAYMELRSLRSDDTAVYYCTNSNYYGGREAWFAYWGQGTLVTVSS VL: DIQMTQSPSSLSASVGDRVTITCRASQDIGSSLNWYQQKPGKAPKRLIYATSSLDSGVPSRFSGSRSGSDFTLTISSLQPEDFATYYCLQYVTSPLTFGGGTKVEIKR
		0.28	0.86	Ab2318 (antibody, human IgG4 S228P, kappa, V domains shown, human kappa / hIgG4) VH: QVQLVQSGAEVKKPGASVKVSCKASGYTFTDYEMHWVKQAPGQGLEWIGGIDPETEGIAYNQKFRGRATLTADKSTSTAYMELRSLRSDDTAVYYCTNSNYYGGREAWFAYWGQGTLVTVSS VL: DIQMTQSPSSLSASVGDRVTITCRASQDIGSSLNWLQQKPGKAIKRLIYATSSLDSGVPSRFSGSRSGTDFTLTISSLQPEDFATYYCLQYVTSPLTFGGGTKVEIKR
		1.01	1.32	Ab2320 (antibody, human IgG4 S228P, kappa, V domains shown, human kappa / hIgG4) VH: QVQLVQSGAEVKKPGASVKVSCKASGYTFTDYEMHWVKQAPGQGLEWIGGIDPETEGIAYNQKFRGRATMTTDKSTSTAYMELRSLRSDDTAVYYCTNSNYYGGREAWFAYWGQGTLVTVSS VL: DIQMTQSPSSLSASVGDRVTITCRASQDIGSSLNWLQQKPGKAIKRLIYATSSLDSGVPSRFSGSGSGTDYTLTISSLQPEDFATYYCLQYVTSPLTFGGGTKVEIKR
		0.307	1.5	Ab2316 (antibody, human IgG4 S228P, kappa, V domains shown, human kappa / hIgG4) VH: QVQLVQSGAEVKKPGASVKVSCKASGYTFTDYEMHWVKQAPGQGLEWIGGIDPETEGIAYNQKFRGRATLTADKSTSTAYMELRSLRSDDTAVYYCTNSNYYGGREAWFAYWGQGTLVTVSS VL: DIQMTQSPSSLSASVGDRVTITCRASQDIGSSLNWLQQKPGKAIKRLIYATSSLDSGVPSRFSGSRSGSDFTLTISSLQPEDFATYYCLQYVTSPLTFGGGTKVEIKR
		0.764	1.85	Ab2319 (antibody, human IgG4 S228P, kappa, V domains shown, human kappa / hIgG4) VH: QVQLVQSGAEVKKPGASVKVSCKASGYTFTDYEMHWVKQAPGQGLEWIGGIDPETEGIAYNQKFRGRATMTTDKSTSTAYMELRSLRSDDTAVYYCTNSNYYGGREAWFAYWGQGTLVTVSS VL: DIQMTQSPSSLSASVGDRVTITCRASQDIGSSLNWLQQKPGKAIKRLIYATSSLDSGVPSRFSGSRSGSDYTLTISSLQPEDFATYYCLQYVTSPLTFGGGTKVEIKR
		0.221	3.22	Ab2313 (antibody, human IgG4 S228P, kappa, V domains shown, human kappa / hIgG4) VH: QVQLVQSGAEVKKPGASVKVSCKASGYTFTDYEMHWVKQAPGQGLEWIGGIDPETEGIAYNQKFRGRATLTADKSTSTAYMELRSLRSDDTAVYYCTNSNYYGGREAWFAYWGQGTLVTVSS VL: DIQMIQSPSSLSASVGDRVTITCRASQDIGSSLNWLQQKPGGAIKRLIYATSSLDSGVPSRFSGSRSGSDYSLTISSLQPEDFATYYCLQYVTSPLTFGGGTKVEIKR
0.332	0.79			LB2381 (bispecific antibody, human IgG4 S228P, kappa) light: DIQMTQSPSSLSASVGDRVTITCRASQDIGSSLNWYQQKPGKAPKRLIYATSSLDSGVPSRFSGSRSGSDFTLTISSLQPEDFATYYCLQYVTSPLTFGGGTKVEIKGGGGSGGGGSGGGGSQVQLVQSGAEVKKPGASVKVSCKASGYTFTDYEMHWVKQAPGQGLEWIGGIDPETEGIAYNQKFRGRATLTADKSTSTAYMELRSLRSDDTAVYYCTNSNYYGGREAWFAYWGQGTLVTVSSGGGGSGGGGSGGGGSEIVLTQSPATLSLSPGERATLSCRASKGVSTSGYSYLHWYQQKPGQAPRLLIYLASYLESGVPARFSGSGSGTDFTLTISSLEPEDFAVYYCQHSRDLPLTFGGGTKVEIKRTVAAPSVFIFPPSDEQLKSGTASVVCLLNNFYPREAKVQWKVDNALQSGNSQESVTEQDSKDSTYSLSSTLTLSKADYEKHKVYACEVTHQGLSSPVTKSFNRGEC heavy: not shown
0.309	0.951			LB2382 (bispecific antibody, human IgG4 S228P, kappa) light: EIVLTQSPATLSLSPGERATLSCRASKGVSTSGYSYLHWYQQKPGQAPRLLIYLASYLESGVPARFSGSGSGTDFTLTISSLEPEDFAVYYCQHSRDLPLTFGGGTKVEIKRTVAAPSVFIFPPSDEQLKSGTASVVCLLNNFYPREAKVQWKVDNALQSGNSQESVTEQDSKDSTYSLSSTLTLSKADYEKHKVYACEVTHQGLSSPVTKSFNRGECGGGGSGGGGSGGGGSQVQLVQSGAEVKKPGASVKVSCKASGYTFTDYEMHWVKQAPGQGLEWIGGIDPETEGIAYNQKFRGRATLTADKSTSTAYMELRSLRSDDTAVYYCTNSNYYGGREAWFAYWGQGTLVTVSSGGGGSGGGGSGGGGSDIQMTQSPSSLSASVGDRVTITCRASQDIGSSLNWYQQKPGKAPKRLIYATSSLDSGVPSRFSGSRSGSDFTLTISSLQPEDFATYYCLQYVTSPLTFGGGTKVEIK heavy: not shown
